T1: NY-ESO-1 peptide on HLA-A*02:01 (human)
T1 peptide: SLLMWITQC


What was measured:
[1] = target: T1, NY-ESO-1 peptide on HLA-A*02:01; test: killing
[2] = target: T1, NY-ESO-1 peptide on HLA-A*02:01; test: cytokine release

Row | binding result [2] | Binder | binding result [1]
1 | – | AL (TCR, V domains shown) Valpha: QKEVEQNSGPLSVPEGAIASLNCTYSDRGSQSFFWYRQYSGKSPELIMSIYSNGDKEDGRFTAQLNKASQYVSLLIRDSQPSDSATYLCAVGGLTSSNTGKLIFGQGTTLQVKP Vbeta: DVKVTQSSRYLVKRTGEKVFLECVQDMDHENMFWYRQDPGLGLRLIYFSYDVKMKEKGDIPEGYSVSREKKERFSLILESASTNQTSMYLCASSNQIYGYTFGSGTRLTVV | recognises
2 | – | 19305DP (TCR, V domains shown) Valpha: SQQGEEDPQALSIQEGENATMNCSYKTSINNLQWYRQNSGRGLVHLILIRSNEREKHSGRLRVTLDTSKKSSSLLITASRAADTASYFCATDGGGTLTFGKGTMLLVSP Vbeta: DAGVIQSPRHEVTEMGQEVTLRCKPISGHDYLFWYRQTMMRGLELLIYFNNNVPIDDSGMPEDRFSAKMPNASFSTLKIQPSEPRDSAVYFCASKWGGTEAFFGQGTRLTVV | recognises
3 | recognises | JD (TCR, V domains shown) Valpha: QKEVEQNSGPLSVPEGAIASLNCTYSDRGSQSFFWYRQYSGKSPELIMFIYSNGDKEDGRFTAQLNKASQYVSLLIRDSQPSDSATYLCAVGATNKLIFGTGTLLAVQP Vbeta: EAGVTQFPSHSVIEKGQTVTLRCDPISGHDNLYWYRRVMGKEIKFLLHFVKESKQDESGMPNNRFLAERTGGTYSTLKVQPAELEDSGVYFCASSQAYGTEAFFGQGTRLTVV | –

From patent US20190275081A1 (published 2019)
